According to patent publication US12036274B2, “Recombinant MPT protein derived from MPT63 and MPT64 and use thereof” (priority 2021, dated 2024):

T1: p47phox (Homo sapiens, UniProt P14598)
T1 sequence (P14598 1-390): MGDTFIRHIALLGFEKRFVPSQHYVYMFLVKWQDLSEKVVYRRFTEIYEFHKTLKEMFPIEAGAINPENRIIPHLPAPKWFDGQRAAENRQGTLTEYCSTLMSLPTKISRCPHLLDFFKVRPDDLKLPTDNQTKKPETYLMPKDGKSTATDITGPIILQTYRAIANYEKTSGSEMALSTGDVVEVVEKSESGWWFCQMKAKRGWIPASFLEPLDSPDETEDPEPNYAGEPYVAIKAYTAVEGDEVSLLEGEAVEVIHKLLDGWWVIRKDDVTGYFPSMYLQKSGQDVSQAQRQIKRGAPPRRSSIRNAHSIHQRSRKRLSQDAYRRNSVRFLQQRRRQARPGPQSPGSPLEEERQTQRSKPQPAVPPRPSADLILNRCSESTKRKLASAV

T2: TBK1 and HK2 (Homo sapiens, UniProt Q9UHD2)
T2 construct: endogenous in cells; host or cells: THP-1
T2 sequence (Q9UHD2 1-729): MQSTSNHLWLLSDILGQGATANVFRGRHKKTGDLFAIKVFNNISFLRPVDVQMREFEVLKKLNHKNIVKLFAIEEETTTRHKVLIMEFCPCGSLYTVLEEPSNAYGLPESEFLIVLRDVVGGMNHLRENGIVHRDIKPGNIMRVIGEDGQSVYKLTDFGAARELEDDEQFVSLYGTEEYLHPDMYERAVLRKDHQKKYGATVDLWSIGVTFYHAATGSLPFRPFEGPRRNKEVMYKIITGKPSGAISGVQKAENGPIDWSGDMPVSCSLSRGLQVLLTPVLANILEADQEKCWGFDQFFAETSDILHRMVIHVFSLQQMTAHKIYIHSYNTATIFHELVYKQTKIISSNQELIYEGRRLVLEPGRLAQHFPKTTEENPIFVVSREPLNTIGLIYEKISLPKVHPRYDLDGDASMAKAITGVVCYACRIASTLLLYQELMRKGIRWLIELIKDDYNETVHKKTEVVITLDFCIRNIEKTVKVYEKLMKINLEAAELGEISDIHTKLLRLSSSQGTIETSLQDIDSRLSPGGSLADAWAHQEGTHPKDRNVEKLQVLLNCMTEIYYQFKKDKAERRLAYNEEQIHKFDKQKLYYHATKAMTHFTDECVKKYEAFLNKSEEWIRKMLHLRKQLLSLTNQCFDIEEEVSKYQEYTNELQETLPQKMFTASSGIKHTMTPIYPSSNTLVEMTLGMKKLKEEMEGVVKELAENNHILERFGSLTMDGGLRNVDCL

B1: MPT63: secreted antigen of Mycobacterium tuberculosis, recombinant, purified with the 6×His bacterial expression system (protein)
chain: AYPITGKLGSELTMTDTVGQVVLGWKVSDLKSSTAVIPGYPVAGQVWEATATVNAIRGSVTPAVSQFNARTADGINYRVLWQAAGPDTISGATIPQGEQSTGKIYFDVTGPSPTIVAMNNGMEDLLIWEP
modifications: left off: small tags and cut ends
notes: secreted antigen of Mycobacterium tuberculosis, recombinant, purified with the 6×His bacterial expression system
B2: MPT64: secreted antigen of Mycobacterium tuberculosis, recombinant, produced in a bacterial expression system (protein)
chain: APKTYCEELKGTDTGQACQIQMSDPAYNINISLPSYYPDQKSLENYIAQTRDKFLSAATSSTPREAPYELNITSATYQSAIPPRGTQAVVLKVYQNAGGTHPTTTYKAFDWDQAYRKPITYDTLWQADTDPLPVVFPIVQGELSKQTGQQVSIAPNAGLDPVNYQNFAVTNDGVIFFFNPGELLPEAAGPTQVLVPRSAIDSMLA
modifications: left off: small tags and cut ends
notes: secreted antigen of Mycobacterium tuberculosis, recombinant, produced in a bacterial expression system

What was measured:
TBK1 = TBK1 (Homo sapiens, UniProt Q9UHD2); conditions: read-out: Kd of interaction with TBK1; fluorescently labeled protein titrated with unlabeled TBK1, curve fitting, 25° C., pH 7.4
Procedure: (§1) The interaction of MPT63-TBK1 with p47phox and the interaction of MPT64-TBK1 with HK2 were monitored using a Fluoromax-4 spectrofluorometer (HORIBA Scientific) which was performed as previously described (Guo et al., 2005). MPT63 and MPT64, respectively, were labeled with BODIPY FL Iodoacetamide (ThermoFisher Scientific) according to the manufacturer's instructions. The labeled MPT63 or MPT64 was excited at 350 nm and detected through a cutoff filter at 512 nm. The fluorescently labeled MPT63 or MPT64 was titrated with unlabeled TBK1, p47phox or HK2 for kinetic analysis. The excitation and emission wavelengths were 498 mm and 518 nm, respectively. The obtained data were verified using the Grafit program, and all fluorescence measurements were performed at 25° C. in 30 mM Tris, pH 7.4, 150 mM NaCl and 1 mM dithiothryitol.

p47phox = target: T1, p47phox; conditions: read-out: Kd of interaction with p47phox; fluorescently labeled MPT63 titrated with unlabeled p47phox, 25° C., pH 7.4
Procedure: as §1

TBK1 and p47phox = test: Co-immunoprecipitation of rMPT63 in THP-1 cells; type: cell-based, human; conditions: 5 μg/ml
HK2 = HK2 (Homo sapiens, UniProt P52789)
Sequence of HK2 (P52789 whole entry): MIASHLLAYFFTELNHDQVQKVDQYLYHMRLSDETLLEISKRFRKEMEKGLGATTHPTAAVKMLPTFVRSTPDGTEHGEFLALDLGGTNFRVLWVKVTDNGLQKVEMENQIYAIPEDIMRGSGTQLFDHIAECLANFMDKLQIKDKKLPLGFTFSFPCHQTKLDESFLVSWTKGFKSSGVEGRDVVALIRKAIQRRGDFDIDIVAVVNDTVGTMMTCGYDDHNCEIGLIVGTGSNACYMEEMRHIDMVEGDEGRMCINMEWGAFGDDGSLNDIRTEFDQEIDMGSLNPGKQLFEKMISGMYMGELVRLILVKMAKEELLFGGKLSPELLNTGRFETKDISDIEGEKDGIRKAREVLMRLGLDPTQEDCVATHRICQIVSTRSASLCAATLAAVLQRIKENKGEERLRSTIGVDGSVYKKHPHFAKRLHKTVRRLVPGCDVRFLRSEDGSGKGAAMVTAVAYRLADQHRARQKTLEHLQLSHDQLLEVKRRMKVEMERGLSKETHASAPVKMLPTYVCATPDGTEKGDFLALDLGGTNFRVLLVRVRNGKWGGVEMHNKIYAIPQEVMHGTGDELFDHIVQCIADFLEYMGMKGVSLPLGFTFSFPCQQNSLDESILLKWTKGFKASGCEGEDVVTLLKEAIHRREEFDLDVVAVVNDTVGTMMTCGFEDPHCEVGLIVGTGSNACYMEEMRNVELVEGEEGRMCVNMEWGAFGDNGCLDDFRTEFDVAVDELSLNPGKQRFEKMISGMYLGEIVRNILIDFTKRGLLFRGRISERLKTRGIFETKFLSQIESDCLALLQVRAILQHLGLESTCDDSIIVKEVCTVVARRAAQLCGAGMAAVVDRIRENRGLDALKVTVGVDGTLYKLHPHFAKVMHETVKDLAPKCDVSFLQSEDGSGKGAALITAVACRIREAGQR
Procedure: as §1

TBK1 and HK2 = target: T2, TBK1 and HK2; test: Co-immunoprecipitation of rMPT64 in THP-1 cells; type: cell-based; conditions: 5 μg/ml

Molecule | Kd (TBK1) | Kd (p47phox) | endogenous interaction with TBK1 and p47phox (TBK1 and p47phox) | Kd (HK2) | interaction with phosphorylated TBK1 (S172) (TBK1 and HK2)
B1 | 178 nM | 345 nM | endogenously interacted |  | 
B2 | 193 nM |  |  | 134 nM | interacts
